According to article PMC11031135, “Chemo-enzymatic synthesis of tetrasaccharide linker peptides to study the divergent step in glycosaminoglycan biosynthesis” (Glycobiology, 2024):

B1: SUMO-β3GalT6 fusion protein (human β3GalT6 residues 53-329) (enzyme, UniProt Q96L58 53-329, looked up)
chain: ARAAAFLAVLVASAPRAAERRSVIRSTWLARRGAPGDVWARFAVGTAGLGAEERRALEREQARHGDLLLLPALRDAYENLTAKVLAMLAWLDEHVAFEFVLKADDDSFARLDALLAELRAREPARRRRLYWGFFSGRGRVKPGGRWREAAWQLCDYYLPYALGGGYVLSADLVHYLRLSRDYLRAWHSEDVSLGAWLAPVDVQREHDPRFDTEYRSRGCSNQYLVTHKQSLEDMLEKHATLAREGRLCKREVQLRLSYVYDWSAPPSQCCQRREGIP
notes: human beta-1,3-galactosyltransferase 6, UniProt Q96L58, residues 53-329, without the N-terminal transmembrane anchoring helix; The fusion was not cleaved; The printed monomer mass is 45 kDa; also called β3GalT6_53-329; source: FreeStyle 293-F cells, transfected, culture supernatant, purified (one-step IMAC, dialysis); not shown: SUMO, N-terminal, kept; 6xHistidine, N-terminal, kept
B2: human β4GalT7, residues 81-327 (enzyme, UniProt Q9UBV7 81-327, looked up)
chain: PEHWEEDASWGPHRLAVLVPFRERFEELLVFVPHMRRFLSRKKIRHHIYVLNQVDHFRFNRAALINVGFLESSNSTDYIAMHDVDLLPLNEELDYGFPEAGPFHVASPELHPLYHYKTYVGGILLLSKQHYRLCNGMSNRFWGWGREDDEFYRRIKGAGLQLFRPSGITTGYKTFRHLHDPAWRKRDQKRIAAQKQEQFKVDREGGLNTVKYHVASRTALSVGGAPCTVLNIMLDCDKTATPWCTFS
notes: human beta-1,4-galactosyltransferase 7, UniProt Q9UBV7, residues 81-327, without the N-terminal transmembrane anchoring helix; Made from the pETM30 vector; The 6xHis-GST tag was removed by TEV protease; The printed monomer mass is 29 kDa; also called β4GalT7_81-327; source: E. coli Rosetta(DE3)pLysS, purified (IMAC, TEV cleavage, second IMAC, Superdex 200); not shown: 6xHistidine, N-terminal, …
B3: human GlcAT-1, residues 76-335 (enzyme, UniProt O94766 76-335, looked up)
chain: TIYVVTPTYARLVQKAELVRLSQTLSLVPRLHWLLVEDAEGPTPLVSGLLAASGLLFTHLVVLTPKAQRLREGEPGWVHPRGVEQRNKALDWLRGRGGAVGGEKDPPPPGTQGVVYFADDDNTYSRELFEEMRWTRGVSVWPVGLVGGLRFEGPQVQDGRVVGFHTAWEPSRPFPVDMAGFAVALPLLLDKPNAQFDSTAPRGHLESSLLSHLVDPKDLEPRAANCTRVLVWHTRTEKPKMKQEEQLQRQGRGSDPAIEV
notes: human glucuronyltransferase GlcAT-1, UniProt O94766, residues 76-335, without the N-terminal transmembrane anchoring helix; Made from the pETM30 vector; The 6xHis-GST tag was removed by TEV protease; The printed monomer mass is 29 kDa; also called GlcAT-1_76-335; source: E. coli BL21(DE3)pLysS, purified (IMAC, TEV cleavage, flow-through of the second IMAC); not shown: 6xHistidine, N-terminal, …

Target: the molecule itself
Assay: mass photometry; Refeyn OneMP; final protein concentration between 50 nM and 125 nM; XylT1 and SUMO-β3GalT6 in Tris buffer A (50 mM Tris pH 7.4, 250 mM NaCl) with 5% glycerol, β4GalT7 in S200 buffer (25 mM MES pH 6.5, 200 mM NaCl, 5% glycerol), GlcAT-1 in HEPES buffer; duplicates

| Protein | stoichiometry N |
| --- | --- |
| B1 | 2 |
| B2 | 2 |
| B3 | 2 |
